Target: the molecule itself
Assay: crystal structure

GNYNVF [hnRNPA2 mutant core segment GNYNVF (residues 286-291 with D290V)]: binds.
